These results are taken from patent US8853367.

This assay concerns the target chimeric receptor comprising mouse TNFR1 external domain (AA 1 to AA 210) linked to the transmembrane and intracellular domains of mouse RANK (AA 210 to AA 625) (mouse). Briefly: cell-based or functional assay.

Chain of chimeric receptor comprising mouse TNFR1 external domain (AA 1 to AA 210) linked to the transmembrane and intracellular domains of mouse RANK (AA 210 to AA 625) (mouse) (chain, as listed by the source mutant): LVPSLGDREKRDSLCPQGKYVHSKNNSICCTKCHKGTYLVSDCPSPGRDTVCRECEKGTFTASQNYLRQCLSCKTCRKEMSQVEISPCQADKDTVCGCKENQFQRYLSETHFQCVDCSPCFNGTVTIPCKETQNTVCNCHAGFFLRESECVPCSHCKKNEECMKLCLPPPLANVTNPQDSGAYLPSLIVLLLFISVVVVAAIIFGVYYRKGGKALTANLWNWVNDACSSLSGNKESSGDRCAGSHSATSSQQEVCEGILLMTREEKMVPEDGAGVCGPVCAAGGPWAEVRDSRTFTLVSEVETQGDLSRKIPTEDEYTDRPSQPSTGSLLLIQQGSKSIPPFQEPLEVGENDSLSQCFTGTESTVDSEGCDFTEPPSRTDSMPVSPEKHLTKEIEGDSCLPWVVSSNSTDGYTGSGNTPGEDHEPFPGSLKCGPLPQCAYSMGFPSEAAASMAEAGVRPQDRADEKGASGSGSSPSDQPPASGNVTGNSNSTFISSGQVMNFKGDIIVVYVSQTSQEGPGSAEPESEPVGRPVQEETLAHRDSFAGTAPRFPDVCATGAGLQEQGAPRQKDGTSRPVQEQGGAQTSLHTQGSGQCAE

Substance “Recombinant mouse TNFα (410-TRNC-050, R&D Systems) (from UniProt P06804 84-235) (ligand)” had an osteoclast formation, lowest TNFα concentration still active of 1 ng/mL.
